Test results published in paper PMC4289141 (Journal of the American Chemical Society, 2013).

Molecular target: the molecule itself
Assay: cross-linking

B1: ^A74/C81/C96RIDC1 (natural protein)
chain: not shown
modifications: heme covalently (c-type) linked to the protein backbone; in the tetramer disulfide bonds between monomers
stoichiometry N: 4
